Drawing on US20200255543A1 (ROCKEFELLER UNIVERSITY, published 2020), this text covers Kd, koff and kon for 1 molecule.

The target of assay [1] is T1, recombinant human MERTK (human, UniProt Q12866 21-505, limits assumed).
T1 construct: Analyte in solution in biolayer interferometry; also called hMer
T1 sequence: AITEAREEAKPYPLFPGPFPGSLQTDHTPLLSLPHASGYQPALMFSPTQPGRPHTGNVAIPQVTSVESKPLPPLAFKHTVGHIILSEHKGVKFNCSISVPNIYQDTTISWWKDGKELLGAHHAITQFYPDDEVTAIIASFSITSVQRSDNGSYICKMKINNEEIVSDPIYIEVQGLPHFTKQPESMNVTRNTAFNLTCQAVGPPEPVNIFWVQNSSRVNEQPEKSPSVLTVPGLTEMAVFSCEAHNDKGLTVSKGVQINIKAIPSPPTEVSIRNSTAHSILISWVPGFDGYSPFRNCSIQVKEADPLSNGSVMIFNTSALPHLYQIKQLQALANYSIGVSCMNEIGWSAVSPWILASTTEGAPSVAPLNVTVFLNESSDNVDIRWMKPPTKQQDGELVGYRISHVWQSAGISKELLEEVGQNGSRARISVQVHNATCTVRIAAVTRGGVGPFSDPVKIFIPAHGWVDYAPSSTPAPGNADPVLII
Nature of the assay: biolayer interferometry, M6 loaded on AMQ sensor at 1 ug/mL, hMer in solution at 5 nM, local 1:1 fit. The protocol:
(§1) FIG. 11: M6 binds to MERTK with high affinity. M6 binds to human MERTK with high affinity. A diagram showing antibody binding kinetics for M6 (Mer-M6) against human MERTK (hMer) using biolayer interferometry. Purified M6 was loaded on an AMQ sensor at a concentration of 1 microgram/mL to test binding against analytes in solution. All analytes were prepared at 5 nM with a 2-fold dilution series for a total of 7 concentrations. Kinetic fits were calculated using a 1:1 model, with Local fits for each concentration as well as an overall Global fit.

Assay [2] deals with T1, recombinant human MERTK. The assay is described as follows: biolayer interferometry, M6 loaded on AMQ sensor, hMer analyte from 5 nM in 2-fold dilutions, 1:1 model, global fit. The protocol: as §1
In assay [3] the target is T1, recombinant human MERTK. The assay is described as follows: biolayer interferometry, M6 loaded on AMQ sensor at 1 ug/mL, hMer in solution at 2.5 nM, local 1:1 fit. On the procedure:
as §1
For orientation: BLI is a label-free optical method that tracks binding on a fibre tip over time.

Assay [4] concerns the target T1, recombinant human MERTK. The assay is described as follows: biolayer interferometry, M6 loaded on AMQ sensor at 1 ug/mL, hMer in solution at 1.25 nM, local 1:1 fit. On the procedure:
as §1

The target in assay [5] is T1, recombinant human MERTK. The assay is described as follows: biolayer interferometry, M6 loaded on AMQ sensor at 1 ug/mL, hMer in solution at 0.625 nM, local 1:1 fit. The protocol:
as §1

The target of assay [6] is T1, recombinant human MERTK. The assay is described as follows: biolayer interferometry, M6 loaded on AMQ sensor at 1 ug/mL, hMer in solution at 0.0781 nM, local 1:1 fit. On the procedure:
as §1

For assay [7], the target named is T1, recombinant human MERTK. The assay is described as follows: biolayer interferometry, M6 loaded on AMQ sensor at 1 ug/mL, hMer in solution at 0.1563 nM, local 1:1 fit. On the procedure: as §1
Assay [8] concerns the target T1, recombinant human MERTK. Nature of the assay: biolayer interferometry, M6 loaded on AMQ sensor at 1 ug/mL, hMer in solution at 0.3125 nM, local 1:1 fit. The protocol:
as §1

In assay [9] the target is T1, recombinant human MERTK. Nature of the assay: biolayer interferometry, M6 loaded on AMQ sensor at 1 ug/mL, hMer in solution at 5 to 0.0781 nM, global 1:1 fit. On the procedure:
as §1

B1: monoclonal antibody M6 (antibody, V domains shown)
VH: QVKLEESGPELKKPGETVKISCKASGYTFTNYGMNWVKQAPGKGLKWMGWINTYTGEPTYADDFKGRFVFSLETSASTAYLQINNLKNEDMATYFCARKSTVVSRYFDVWGAGTTVTVSS
VL: DIVLTQTHKFMSTSVGDRVSITCKASQDVGDAVTWCQQKPGQPPKLLIYWASTRHTGVPDRFTGSGSGTDFTLTINNVQSEDLADYFCQQYRSYPLTFGAGTKLELKR
notes: Mouse hybridoma monoclonal antibody; Hybridoma supernatant was used in the ELISA screen, purified antibody in biolayer interferometry; also called Mer-M6
Consider B1, for which the Kd with recombinant human MERTK [1] is 0.634 pM; with recombinant human MERTK [2] it was 4.6 pM; in the assay with recombinant human MERTK [3], 2.09 pM; with recombinant human MERTK [4] it was 0.0498 nM; with recombinant human MERTK [5] it was 0.0131 pM; with recombinant human MERTK [6], 0.823 pM. The equilibrium dissociation constant (Kd) was 0.0652 pM with recombinant human MERTK [7] and 0.00312 pM with recombinant human MERTK [8]. Also, the koff with recombinant human MERTK [1] was 1.5e-06 s⁻¹; with recombinant human MERTK [3], 4.46e-06 s⁻¹; with recombinant human MERTK [4], 0.000156 s⁻¹; with recombinant human MERTK [5], 7.27e-08 s⁻¹; with recombinant human MERTK [6] it was 2.49e-05 s⁻¹; in the assay with recombinant human MERTK [7], 9.22e-07 s⁻¹. For the same molecule, the koff worked out at 3.3e-08 s⁻¹ in the assay with recombinant human MERTK [8] and 9.55e-06 s⁻¹ in the assay with recombinant human MERTK [9]. Besides, the kon came to 2.37e+06 M⁻¹ s⁻¹ in the assay with recombinant human MERTK [1]; 2.13e+06 M⁻¹ s⁻¹ in the assay with recombinant human MERTK [3]; 3.12e+06 M⁻¹ s⁻¹ with recombinant human MERTK [4]; 5.57e+06 M⁻¹ s⁻¹ with recombinant human MERTK [5]; 3.03e+07 M⁻¹ s⁻¹ with recombinant human MERTK [6]; 1.41e+07 M⁻¹ s⁻¹ in the assay with recombinant human MERTK [7]. For the same molecule, the figures for the on-rate (kon) with recombinant human MERTK [8] and with recombinant human MERTK [9] were 1.06e+07 M⁻¹ s⁻¹ and 2.07e+06 M⁻¹ s⁻¹, respectively.

A word on the Kd: it is the equilibrium constant for the complex coming apart. The koff is the first-order rate constant of dissociation. What is called kon is a measure of how fast the partners come together.
